Source: the Human Domainome abundance scans (Beltran et al. 2025)

B1: Segment polarity protein dishevelled homolog DVL-3, residues 2 to 81; numbered along this chain, Q92997 (parent)
chain: GETKIIYHLDGQETPYLVKLPLPAERVTLADFKGVLQRPSYKFFFKSMDDDFGVVKEEISDDNAKLPCFNGRVVSWLVSA

Variants of: B1
Test: abundance fitness (aPCA) (normalised: wild type 0, dead -1); higher = more abundant; growth selection in yeast, the domain comes from the species named
Conditions: Homo sapiens

Abundance fitness, by site and new letter:
D51: L -0.32; W -0.824; I -0.202; P 0.057; S 0.072; T 0.166; N 0.25; H 0.058; M -0.279; F -0.198; Y -0.224; G -0.004; E -0.074; V -0.113; C -0.191; K 0.197; Q 0.158; R 0.224; A 0.022
F44: W -0.244; E -0.683; N -0.653; D -0.749; I -0.624; V -0.756; Y -0.015; P -0.685; R -0.753; K -0.818; G -0.754; Q -0.745; H -0.807; L -0.351
F45: D -0.775; S -0.856; V -0.755; I -0.969; E -0.379; W -0.605; T -0.596; H -0.864; N -0.407; P -0.581; L -0.775; Q -0.669; C -0.569; K -0.934; R -0.669; M -0.868; A -0.533
V55: E -0.104; P -0.895; L -0.21; I 0.151; A -0.212; C 0.198; Y 0.2; D -0.259; K 0.199; R 0.225; T 0.195; H 0.365; F 0.204; W -0.189; Q 0.106; G -0.335; S -0.148; M -0.024
F52: Q 0.268; Y -0.063; K 0.604; S 0.37; E 0.335; G 0.781; I 0.036; A 0.263; M 0.156; V 0.048; T 0.183; R 0.618; L 0.249; H 0.32; C 0.351
M48: H 0.056; L -0.074; K 0.039; Y 0.175; S 0.283; G 0.316; A 0.287; N 0.567; C 0.133; Q 0.089; F -0.121; E 0.09; T 0.296; V 0.125; I -0.13; W 0.017; R 0.204
D50: C -0.263; I -0.421; E -0.184; H -0.188; S 0.089; W -0.445; F -0.645; N -0.079; A -0.15; Y -0.287; Q -0.041; T -0.074; G 0.069; P -0.016; L -0.475; M -0.329; K 0.131
D49: N 0.296; M -0.402; I -0.231; A 0.018; L -0.564; H 0.136; V -0.364; S 0.234; W -0.461; F -0.488; Q -0.053; C 0.013; T 0.111; K 0.203; G -0.046; E -0.038
S47: H -0.207; C 0.251; M 0.415; A -0.051; K 0.324; G -0.336; R 0.34; P -0.675; W -0.519; T 0.325; Q -0.212; L 0.024; E -0.726; N 0.092; D -0.658; F 0.011; I 0.336; V 0.269
N63: E 0.009; H -0.093; A -0.184; C -0.157; G -0.175; I -0.766; K -0.175; L -0.615; F -0.661
E57: Y -0.222; R 0.44; T 0.441; N -0.276; A -0.121; Q 0.256; K 0.502; S -0.137; W -0.526; C -0.09; H -0.109; G -0.623; M 0.292; V 0.254; P -0.475; D -0.904; L 0.136
D61: K -0.984; P -0.566; E -0.257; S -0.594; V -0.695; H -0.695; W -0.679; N -0.33; C -0.407; Q -0.082; G -0.791; M -0.335; Y -0.666; T -0.985; F -0.52; L -0.763; I -0.384; A -0.578
D62: V -0.674; T -0.906; A -0.875; W -0.929; M -0.441; R -0.709; L -0.563; C -1.05; N -0.307; S -0.748; P -0.575; Y -0.604; F -0.536; G -0.818; I -0.744; Q -0.603
S60: H 0.137; E -0.269; K 0.032; L -0.502; R -0.273; P -0.922; W -0.115; F -0.189; A -0.152; D -0.32; G -0.572; T -0.005; I -0.325; M -0.199; C 0.1; N -0.111
I59: W -0.724; D -1.21; H -0.628; C -0.593; K -0.675; P -0.777; Q -1.11; A -0.419; L -0.64; R -0.746; S -0.704; V -0.395; G -0.696; T -0.811; N -0.736; F -0.592; E -0.677; M -0.474; Y -0.655
K46: V -0.407; F -0.488; P -0.437; C -0.068; N -0.046; E 0.277; H -0.132; T -0.392; W -0.227; R -0.08; S -0.196; Q 0.165; G -0.223; L -0.138; D -0.061; I -0.189; Y -0.401; M -0.081
K56: Q -0.285; D -0.738; P -0.496; A -0.32; Y 0.592; N -0.678; I 0.03; G -0.63; L -0.094; C 0.103; S -0.52; W 0.282; E -0.431; R 0.041; H -0.216; V 0.102; T 0.162; F -0.009
G53: W -0.458; R 0.382; S 0.153; Q 0.327; Y 0.223; I -0.501; H 0.358; L -0.321; A 0.096; C 0.2; V -0.005; P -0.211; E 0.209; M -0.032; K 0.482; N 0.563; F -0.362; T 0.092
V54: Y -0.088; Q -0.241; A 0.005; R -0.556; H 0.002; F 0.136; W 0.13; I 0.175; E 0.192; D 0.168; M -0.188; K -0.657; S -0.082; G -0.127; N -0.005; C 0.01; T -0.178; L -0.083; P 0.069
E58: S -0.62; T -0.456; V -0.561; R -0.676; A -0.647; M -0.476; Y -0.801; G -0.733; H -0.227; L -0.492; N -0.536; D -0.942; P -0.95; Q -0.513; K -0.652
